{
  "source": "paper PMC5007751",
  "origin": "cited, not measured here",
  "biological_target": "RNA helicase A distal portion of helicase domain (Homo sapiens) (UniProt Q08211)",
  "sequence (Q08211 630-1020)": "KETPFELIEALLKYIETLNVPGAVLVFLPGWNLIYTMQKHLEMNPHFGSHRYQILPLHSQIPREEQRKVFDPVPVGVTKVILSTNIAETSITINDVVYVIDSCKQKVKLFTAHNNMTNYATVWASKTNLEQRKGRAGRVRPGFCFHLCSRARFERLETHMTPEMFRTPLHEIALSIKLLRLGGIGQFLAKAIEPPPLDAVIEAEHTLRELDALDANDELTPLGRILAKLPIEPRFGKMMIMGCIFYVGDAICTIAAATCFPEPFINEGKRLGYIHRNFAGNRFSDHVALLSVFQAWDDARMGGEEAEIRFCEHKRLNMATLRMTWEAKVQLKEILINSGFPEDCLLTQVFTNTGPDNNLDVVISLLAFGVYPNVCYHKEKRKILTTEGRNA",
  "note": "pKd: −log10 of the molar value.",
  "data": [
    {"substance": "EWS/FLI (from UniProt Q01844)", "values": [
      {"measurement": "pKd", "result": 5.02}
    ]}
  ]
}
